Laboratory results reported in PMC4150783.

Experiments:
Pot1-DBD [1] = target: T1, Pot1-DBD (Schizosaccharomyces pombe, UniProt O13988 1-339); assay: SEC-MALS
T1 sequence: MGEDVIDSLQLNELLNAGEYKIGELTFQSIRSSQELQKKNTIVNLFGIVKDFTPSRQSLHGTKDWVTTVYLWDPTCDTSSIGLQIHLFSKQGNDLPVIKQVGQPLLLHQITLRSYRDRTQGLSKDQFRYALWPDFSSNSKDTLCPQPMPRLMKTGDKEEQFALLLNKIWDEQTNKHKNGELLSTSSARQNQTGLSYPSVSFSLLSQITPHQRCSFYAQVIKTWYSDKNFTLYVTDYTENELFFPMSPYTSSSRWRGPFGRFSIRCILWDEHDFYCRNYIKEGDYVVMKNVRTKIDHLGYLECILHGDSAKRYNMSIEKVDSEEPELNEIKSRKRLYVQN

Pot1-DBD_Y224A = target: T2, Pot1-DBD_Y224A (Schizosaccharomyces pombe, UniProt O13988 1-339, Y224A); assay: SEC-MALS
T2 sequence: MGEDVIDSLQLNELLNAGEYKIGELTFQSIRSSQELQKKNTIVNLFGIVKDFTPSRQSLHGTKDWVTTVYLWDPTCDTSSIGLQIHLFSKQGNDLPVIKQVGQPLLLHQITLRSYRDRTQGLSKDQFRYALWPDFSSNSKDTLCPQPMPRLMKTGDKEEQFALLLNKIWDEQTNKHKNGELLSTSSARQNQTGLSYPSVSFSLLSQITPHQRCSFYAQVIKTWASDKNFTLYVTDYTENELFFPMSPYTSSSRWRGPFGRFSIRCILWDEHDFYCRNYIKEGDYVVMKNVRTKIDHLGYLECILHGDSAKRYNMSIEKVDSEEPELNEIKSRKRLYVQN

Pot1-DBD [2] = target: T1, Pot1-DBD; assay: NMR
Pot1pC_Y224A = target: T3, Pot1pC_Y224A (Schizosaccharomyces pombe, UniProt O13988 198-339, Y224A); assay: ITC
T3 sequence: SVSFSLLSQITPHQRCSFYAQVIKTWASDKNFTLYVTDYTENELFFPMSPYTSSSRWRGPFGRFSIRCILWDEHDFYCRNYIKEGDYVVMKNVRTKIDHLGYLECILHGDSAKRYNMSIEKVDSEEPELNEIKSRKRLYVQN

Pot1pC = target: T4, Pot1pC (Schizosaccharomyces pombe, UniProt O13988 198-339); assay: NMR
T4 sequence: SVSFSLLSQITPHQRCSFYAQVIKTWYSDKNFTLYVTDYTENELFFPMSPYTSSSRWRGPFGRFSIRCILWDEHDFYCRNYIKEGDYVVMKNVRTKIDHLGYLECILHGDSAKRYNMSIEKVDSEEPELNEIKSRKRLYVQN

Pot1-DBD [3] = target: T1, Pot1-DBD; assay: SEC-MALS; remark: listed apart in the source
Pot1-DBD [4] = target: T1, Pot1-DBD; assay: EMSA
Pot1pN = target: T5, Pot1pN (Schizosaccharomyces pombe, UniProt O13988 1-187); assay: NMR
T5 sequence: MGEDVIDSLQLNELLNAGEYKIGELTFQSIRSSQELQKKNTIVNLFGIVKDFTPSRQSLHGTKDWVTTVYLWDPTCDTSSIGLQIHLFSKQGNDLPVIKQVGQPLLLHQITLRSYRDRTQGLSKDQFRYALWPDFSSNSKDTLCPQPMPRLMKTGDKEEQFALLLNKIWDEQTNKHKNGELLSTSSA

GGTTACGGTTACCGT (ssDNA) [15mer_G13C]
binding result (Pot1-DBD [1]): binds

GGTTACGGTTACGGT (ssDNA) [15mer]
binding result (Pot1-DBD_Y224A): binds | binding result (Pot1-DBD [2]): binds

GGTTACGGT (ssDNA) [9mer]
binding signal (Pot1pC_Y224A): ~10 fold weaker than Pot1pC wild type | binding result (Pot1pC): binds

GGTTACGGATAC (ssDNA) [12mer_T9A]
binding result (Pot1-DBD [3]): binds

GGTTACGGTTAC (ssDNA) [12mer]
binding result (Pot1-DBD [4]): binds

GGTTAC (ssDNA) [6mer]
binding result (Pot1pN): binds
